Measured values reported in paper PMC10397247.
Like-named read-outs stand apart in the source and are kept apart here. Each block holds one binder with its values, some of them ahead of it.

What was measured:
zCON9_B = molecular target: T1, zCON9_B; experiment: two-hybrid library CCmax; settings: mean of both orientations;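 further: natural log of median RNA to DNA barcode read ratio; higher means stronger binding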
T1 chain: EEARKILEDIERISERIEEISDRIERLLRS

P9-AA = molecular target: T2, P9-AA; experiment: two-hybrid library CCmax; settings: mean of both orientations;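 further: natural log of median RNA to DNA barcode read ratio; higher means stronger binding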
T2 chain: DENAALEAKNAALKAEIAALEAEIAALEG

zCON9_D = molecular target: T3, zCON9_D; experiment: two-hybrid library CCmax;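 further: natural log of median RNA to DNA barcode read ratio; higher means stronger binding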
T3 chain: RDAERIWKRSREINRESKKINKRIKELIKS

P8-AA = molecular target: T4, P8-AA; experiment: two-hybrid library CCmax;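 further: natural log of median RNA to DNA barcode read ratio; higher means stronger binding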
T4 chain: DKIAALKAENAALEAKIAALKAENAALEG

P7-AA = molecular target: T5, P7-AA; experiment: two-hybrid library CCmax; settings: mean of both orientations
T5 chain: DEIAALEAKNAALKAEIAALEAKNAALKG

zCON9_A = molecular target: T6, zCON9_A; experiment: two-hybrid library CCmax
T6 chain: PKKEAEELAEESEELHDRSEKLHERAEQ

P3-AA = molecular target: T7, P3-AA; experiment: two-hybrid library CCmax
T7 chain: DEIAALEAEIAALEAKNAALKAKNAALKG

P4-AA = molecular target: T8, P4-AA; experiment: two-hybrid library CCmax; settings: mean of both orientations
T8 chain: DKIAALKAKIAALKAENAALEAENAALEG

O9-bS = molecular target: T9, O9-bS; experiment: two-hybrid library CCNG1
T9 chain: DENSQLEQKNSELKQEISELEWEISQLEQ

O8-bS = molecular target: T10, O8-bS; experiment: two-hybrid library CCNG1
T10 chain: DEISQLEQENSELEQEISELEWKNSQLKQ

O7-bS = molecular target: T11, O7-bS; experiment: two-hybrid library CCNG1
T11 chain: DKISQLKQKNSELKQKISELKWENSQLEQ

4H3709-AA = molecular target: T12, 4H3709-AA; experiment: two-hybrid library CCmax; settings: mean of both orientations
T12 chain: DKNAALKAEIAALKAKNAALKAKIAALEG

4H3666-AA = molecular target: T13, 4H3666-AA; experiment: two-hybrid library CCmax; settings: mean of both orientations
T13 chain: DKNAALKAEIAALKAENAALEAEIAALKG

4H3029-AA = molecular target: T14, 4H3029-AA; experiment: two-hybrid library CCmax; settings: mean of both orientations
T14 chain: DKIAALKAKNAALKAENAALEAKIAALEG

4H3939-AA = molecular target: T15, 4H3939-AA; experiment: two-hybrid library CCmax; settings: mean of both orientations
T15 chain: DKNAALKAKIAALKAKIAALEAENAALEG

4H3920-AA = molecular target: T16, 4H3920-AA; experiment: two-hybrid library CCmax; settings: mean of both orientations
T16 chain: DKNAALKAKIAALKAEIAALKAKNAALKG

4H971-AA = molecular target: T17, 4H971-AA; experiment: two-hybrid library CCmax; settings: mean of both orientations
T17 chain: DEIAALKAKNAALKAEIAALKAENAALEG

4H3102-AA = molecular target: T18, 4H3102-AA; experiment: two-hybrid library CCmax; settings: mean of both orientations
T18 chain: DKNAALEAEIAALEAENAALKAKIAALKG

4H3446-AA = molecular target: T19, 4H3446-AA; experiment: two-hybrid library CCmax; settings: mean of both orientations
T19 chain: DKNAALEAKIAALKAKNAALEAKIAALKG

4H3628-AA = molecular target: T20, 4H3628-AA; experiment: two-hybrid library CCmax; settings: mean of both orientations
T20 chain: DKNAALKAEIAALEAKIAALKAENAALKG

4H391-AA = molecular target: T21, 4H391-AA; experiment: two-hybrid library CCmax; settings: mean of both orientations
T21 chain: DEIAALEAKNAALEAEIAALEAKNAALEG

4H675-AA = molecular target: T22, 4H675-AA; experiment: two-hybrid library CCmax; settings: mean of both orientations
T22 chain: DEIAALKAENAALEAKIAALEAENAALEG

4H3121-AA = molecular target: T23, 4H3121-AA; experiment: two-hybrid library CCmax; settings: mean of both orientations
T23 chain: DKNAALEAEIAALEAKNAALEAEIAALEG

4H428-AA = molecular target: T24, 4H428-AA; experiment: two-hybrid library CCmax; settings: mean of both orientations
T24 chain: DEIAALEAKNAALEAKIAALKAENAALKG

4H2742-AA = molecular target: T25, 4H2742-AA; experiment: two-hybrid library CCmax; settings: mean of both orientations
T25 chain: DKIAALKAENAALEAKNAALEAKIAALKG

4H497-AA = molecular target: T26, 4H497-AA; experiment: two-hybrid library CCmax; settings: mean of both orientations
T26 chain: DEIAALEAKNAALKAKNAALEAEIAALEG

4H3591-AA = molecular target: T27, 4H3591-AA; experiment: two-hybrid library CCmax; settings: mean of both orientations
T27 chain: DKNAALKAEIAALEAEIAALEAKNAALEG

4H2991-AA = molecular target: T28, 4H2991-AA; experiment: two-hybrid library CCmax; settings: mean of both orientations
T28 chain: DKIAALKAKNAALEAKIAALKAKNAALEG

4H478-AA = molecular target: T29, 4H478-AA; experiment: two-hybrid library CCmax; settings: mean of both orientations
T29 chain: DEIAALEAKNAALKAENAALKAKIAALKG

4H3417-AA = molecular target: T30, 4H3417-AA; experiment: two-hybrid library CCmax; settings: mean of both orientations
T30 chain: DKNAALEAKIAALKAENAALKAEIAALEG

4H3066-AA = molecular target: T31, 4H3066-AA; experiment: two-hybrid library CCmax; settings: mean of both orientations
T31 chain: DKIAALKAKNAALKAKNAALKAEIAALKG

4H2713-AA = molecular target: T32, 4H2713-AA; experiment: two-hybrid library CCmax
T32 chain: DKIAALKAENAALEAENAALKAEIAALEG

4H656-AA = molecular target: T33, 4H656-AA; experiment: two-hybrid library CCmax; settings: mean of both orientations
T33 chain: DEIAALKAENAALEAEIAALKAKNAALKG

4H2948-AA = molecular target: T34, 4H2948-AA; experiment: two-hybrid library CCmax; settings: mean of both orientations
T34 chain: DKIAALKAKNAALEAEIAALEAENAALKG

P12-AA = molecular target: T35, P12-AA; experiment: two-hybrid library CCmax; settings: mean of both orientations
T35 chain: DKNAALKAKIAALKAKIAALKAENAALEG

P2-AA = molecular target: T36, P2-AA; experiment: two-hybrid library CCmax
T36 chain: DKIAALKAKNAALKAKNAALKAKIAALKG

P11-AA = molecular target: T37, P11-AA; experiment: two-hybrid library CCmax
T37 chain: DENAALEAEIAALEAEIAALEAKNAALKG

Binder: DEIAALEAEIAALEAKNAALKAKNAALKG [P3-AA]
interaction score (zCON9_B): -1.33
interaction score (P9-AA): -1.38
interaction score (zCON9_D; mean of both orientations): -2.08
interaction score (P8-AA; mean of both orientations): -0.983
interaction score (P7-AA): -1.27
interaction score (zCON9_A): -1.78
interaction score (P3-AA): -1.46
interaction score (P4-AA): 2.28

Binder: DKISQLKQKNSELKQKISELKWENSQLEQ [O7-bS]
interaction score (O9-bS): -1.07
interaction score (O8-bS): 0.93
interaction score (O7-bS): -1.01

Binder: DKIAALKAENAALEAENAALKAEIAALEG [4H2713-AA]
interaction score (4H3709-AA): -1.95
interaction score (4H3666-AA): -1.39
interaction score (4H3029-AA): 1.75
interaction score (4H3939-AA): -1.59
interaction score (4H3920-AA): -1.61
interaction score (4H971-AA): -1.57
interaction score (4H3102-AA): -0.638
interaction score (4H3446-AA): -1.15
interaction score (4H3628-AA): -1.22
interaction score (4H391-AA): -1.91
interaction score (4H675-AA): -1.83
interaction score (4H3121-AA): -1.64
interaction score (4H428-AA): -1.87
interaction score (4H2742-AA): -0.508
interaction score (4H497-AA): 0.0354
interaction score (4H3591-AA): -1.25
interaction score (4H2991-AA): -1.79
interaction score (4H478-AA): 2.27
interaction score (4H3417-AA): -1.19
interaction score (4H3066-AA): 1.76
interaction score (4H2713-AA): 0.691
interaction score (4H656-AA): -1.66
interaction score (4H2948-AA): -1.84

Binder: DKIAALKAKNAALKAKNAALKAKIAALKG [P2-AA]
interaction score (zCON9_B): 1.28
interaction score (P2-AA): -0.878
interaction score (P9-AA): -0.716
interaction score (zCON9_D; mean of both orientations): -2.05
interaction score (P8-AA; mean of both orientations): -1.37
interaction score (P7-AA): -1.47
interaction score (zCON9_A; mean of both orientations): -1.98
interaction score (P3-AA; mean of both orientations): -1.6
interaction score (P4-AA): -0.357

Second part, the binder after the results:

interaction score (zCON9_B): -1.66
interaction score (P9-AA): -0.207
interaction score (zCON9_D; mean of both orientations): -1.98
interaction score (P8-AA): -1.57
interaction score (zCON9_A): -1.74
Binder: DKIAALKAENAALEAKIAALKAENAALEG [P8-AA]

interaction score (P12-AA): 1.97
interaction score (zCON9_B): -0.891
interaction score (P2-AA; mean of both orientations): 0.243
interaction score (P9-AA): -1.18
interaction score (zCON9_D): -1.93
interaction score (P8-AA; mean of both orientations): -1.23
interaction score (P7-AA): -1.07
interaction score (zCON9_A): -1.48
interaction score (P3-AA; mean of both orientations): -1.5
interaction score (P11-AA): -1.19
interaction score (P4-AA): 1.68
Binder: DENAALEAEIAALEAEIAALEAKNAALKG [P11-AA]
